Laboratory results: the supplement of paper PMC9233669
This sample holds only a part of the variants without activity.

How the values were obtained:
biotinyl-Leu-oxazolone = test: self-aminoacylation, catalytic enhancement (BLO) (fold over background); higher = more active; k-Seq, kA / k0A0; sequences stand for … in GGGAAUGGAUCCACAUCUACGAAUUC…UUCACUGCAGACUUGACGAAGCUG
In short: (§1)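 Catalytic enhancement equals the median kA over the uncatalyzed rate, the latter read from the low-activity peak of a bimodal Gaussian fit. Values of kA came from fitting each sequence's fraction reacted to a pseudo-first-order model, with 1000 bootstraps. Reacted RNA was captured with streptavidin and quantified by triplicate qPCR and Illumina sequencing after 90 minutes at room temperature with 2–1250 μM biotinyl-aminoacyl-oxazolone and 0.43 μM mutagenized RNA pools bearing a 21-nt variable region.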

biotinyl-Phe-oxazolone = test: self-aminoacylation, catalytic enhancement (BFO) (fold over background); higher = more active; k-Seq, kA / k0A0; sequences stand for … in GGGAAUGGAUCCACAUCUACGAAUUC…UUCACUGCAGACUUGACGAAGCUG
In short: as §1

biotinyl-Trp-oxazolone = test: self-aminoacylation, catalytic enhancement (BWO) (fold over background); higher = more active; k-Seq, kA / k0A0; sequences stand for … in GGGAAUGGAUCCACAUCUACGAAUUC…UUCACUGCAGACUUGACGAAGCUG
In short: as §1

biotinyl-Val-oxazolone = test: self-aminoacylation, catalytic enhancement (BVO) (fold over background); higher = more active; k-Seq, kA / k0A0; sequences stand for … in GGGAAUGGAUCCACAUCUACGAAUUC…UUCACUGCAGACUUGACGAAGCUG
In short: as §1

biotinyl-Ile-oxazolone = test: self-aminoacylation, catalytic enhancement (BIO) (fold over background); higher = more active; k-Seq, kA / k0A0; sequences stand for … in GGGAAUGGAUCCACAUCUACGAAUUC…UUCACUGCAGACUUGACGAAGCUG
In short: as §1

biotinyl-Met-oxazolone = test: self-aminoacylation, catalytic enhancement (BMO) (fold over background); higher = more active; k-Seq, kA / k0A0; sequences stand for … in GGGAAUGGAUCCACAUCUACGAAUUC…UUCACUGCAGACUUGACGAAGCUG
In short: as §1

| Sequence | self-aminoacylation (biotinyl-Leu-oxazolone) | self-aminoacylation (biotinyl-Phe-oxazolone) | self-aminoacylation (biotinyl-Trp-oxazolone) | self-aminoacylation (biotinyl-Val-oxazolone) | self-aminoacylation (biotinyl-Ile-oxazolone) | self-aminoacylation (biotinyl-Met-oxazolone) |
| --- | --- | --- | --- | --- | --- | --- |
| AUUCACCUUGGUCUUCGGGUG [Fam2.2 aminoacylation ribozyme variant] | 6.07 | 37.3 | 5.01 | 4.25 | 3.75 | 4.81 |
| AUUCACGCAGGUCAUCGGGUG [Fam2.2 aminoacylation ribozyme variant] | 4.77 | 41.6 | 5.58 | 4.58 | 3.54 | 4.55 |
| AUUCACGUAGAUCAUCGGGUG [Fam2.2 aminoacylation ribozyme variant] | 5.42 | 29.6 | 4.96 | 3.9 | 4.08 | 5.1 |
| AUUCACGUAGGUCAUCGGUUG [Fam2.2 aminoacylation ribozyme variant] | 1.35 | 4.98 | 0.72 | 1.24 | 1.2 | 1.23 |
| AUUCACGUAGGUCAUCGUGUG [Fam2.2 aminoacylation ribozyme variant] | 1.82 | 7.45 | 1.79 | 1.28 | 1.15 | 1.57 |
| AUUCACGUAGGUCGUCGGGUG [Fam2.2 aminoacylation ribozyme variant] | 2.35 | 9.34 | 2.44 | 3.81 | 2.61 | 2.48 |
| AUUCACGUAGUUCAUCGGGUG [Fam2.2 aminoacylation ribozyme variant] | 3.88 | 21.9 | 4.72 | 3.45 | 3.07 | 3.49 |
| AUUCACGUAUGUCAUCGGGUG [Fam2.2 aminoacylation ribozyme variant] | 9.38 | 73.5 | 7.42 | 5.58 | 5.2 | 8.47 |
| AUUCACGUCGGUCAUCGGGUG [Fam2.2 aminoacylation ribozyme variant] | 5.21 | 54.3 | 6.46 | 5.95 | 3.75 | 5.7 |
| AUUCACGUGGGUCAUCGGGUG [Fam2.2 aminoacylation ribozyme variant] | 7.84 | 94 | 9.93 | 8.26 | 5.57 | 9.61 |
| AUUCACGUUGGUCAUCGGGUG [Fam2.2 aminoacylation ribozyme variant] | 12.2 | 121 | 10.1 | 8 | 6.91 | 12.5 |
| AUUCACUCAGGUCAUCGGGUG [Fam2.2 aminoacylation ribozyme variant] | 6.71 | 41.3 | 4.79 | 4.16 | 3.48 | 4.85 |
| AUUCACUUAGGCCAUCGGGUG [Fam2.2 aminoacylation ribozyme variant] | 3.9 | 16 | 3.26 | 2.65 | 2.53 | 3.04 |
| AUUCACUUAGGUCACCGGGUG [Fam2.2 aminoacylation ribozyme variant] | 5.15 | 28.2 | 5.19 | 3.33 | 3.47 | 4.86 |
| AUUCACUUAGGUCAUCCGGUG [Fam2.2 aminoacylation ribozyme variant] | 8.78 | 43.4 | 6.84 | 4.72 | 4.64 | 6.26 |
| AUUCACUUAGGUCAUCGGGUU [Fam2.2 aminoacylation ribozyme variant] | 1.69 | 6.63 | 1.47 | 1.65 | 1.59 | 1.78 |
| AUUCACUUCGGUCAUCGGGUG [Fam2.2 aminoacylation ribozyme variant] | 10.1 | 55.8 | 7.68 | 5.73 | 5.12 | 7.48 |
| AUUCAGCGAGGUCAUCGGGUG [Fam2.2 aminoacylation ribozyme variant] | 7.8 | 44 | 7.06 | 5.33 | 4.46 | 6 |
| AUUCAGCUAGCUCAUCGGGUG [Fam2.2 aminoacylation ribozyme variant] | 3.86 | 20.2 | 3.74 | 3.41 | 2.69 | 3.07 |
| AUUCAGCUAGGUCAGCGGGUG [Fam2.2 aminoacylation ribozyme variant] | 4.01 | 21.8 | 4.28 | 2.53 | 2.71 | 3.79 |
| AUUCAGCUAGGUCAUCGGCUG [Fam2.2 aminoacylation ribozyme variant] | 1.52 | 11.6 | 2.02 | 1.86 | 1.63 | 1.55 |
| AUUCAGCUAGGUCAUCGGGUU [Fam2.2 aminoacylation ribozyme variant] | 2.5 | 18.7 | 3.38 | 2.79 | 2.81 | 3.1 |

| Sequence | self-aminoacylation (biotinyl-Leu-oxazolone) | self-aminoacylation (biotinyl-Phe-oxazolone) | self-aminoacylation (biotinyl-Trp-oxazolone) | self-aminoacylation (biotinyl-Val-oxazolone) | self-aminoacylation (biotinyl-Ile-oxazolone) | self-aminoacylation (biotinyl-Met-oxazolone) |
| --- | --- | --- | --- | --- | --- | --- |
| AUUCAGCUAGGUCAUCGGUUG [Fam2.2 aminoacylation ribozyme variant] | 1.07 | 5.67 | 1.25 | 0.865 | 0.882 | 1.16 |
| AUUCAGCUAGGUCUUCGGGUG [Fam2.2 aminoacylation ribozyme variant] | 5.34 | 36.2 | 4.96 | 4.24 | 4.2 | 5.01 |
| AUUCAUCUAGGUCAUCGAGUG [Fam2.2 aminoacylation ribozyme variant] | 4.86 | 4.08 | 3.67 | 2.38 | 2.63 | 3.88 |
| AUUCAUCUAGGUCAUCGGUUG [Fam2.2 aminoacylation ribozyme variant] | 1.3 | 1.07 | 1.13 | 1.24 | 1.15 | 1.25 |
| AUUCAUCUAGGUGAUCGGGUG [Fam2.2 aminoacylation ribozyme variant] | 3.57 | 20.3 | 3.76 | 2.54 | 2.4 | 2.85 |
| AUUCAUCUAGUUCAUCGGGUG [Fam2.2 aminoacylation ribozyme variant] | 3.27 | 12.6 | 3.1 | 2.21 | 2.13 | 2.83 |
| AUUCCACUAGGUCAUCGGGUG [Fam2.2 aminoacylation ribozyme variant] | 14.2 | 77.2 | 8.98 | 6.23 | 6.56 | 9.49 |
| AUUCCACUGGUCAUCGAGUGA [Fam2.1 aminoacylation ribozyme variant] | 6.67 | 28.1 | 7.09 | 3.82 | 3.72 | 5.86 |
| AUUCCCCAAGGUCAUCGGGUG [Fam2.2 aminoacylation ribozyme variant] | 31.1 | 218 | 20.9 | 14.8 | 15.9 | 27 |
| AUUCCCCCGGUCAUCGAGUGA [Fam2.1 aminoacylation ribozyme variant] | 8.86 | 59.9 | 10.7 | 4.37 | 4.4 | 8.57 |
| AUUCCCCUAGCUCAUCGGGUG [Fam2.2 aminoacylation ribozyme variant] | 6.66 | 35.1 | 5.96 | 6.05 | 6.15 | 5.75 |
| AUUCCCCUAGGUCAUCCGGUG [Fam2.2 aminoacylation ribozyme variant] | 51.5 | 295 | 39.5 | 26.9 | 27.6 | 38.5 |
| AUUCCCCUAGGUCAUCGGAUG [Fam2.2 aminoacylation ribozyme variant] | 3.28 | 2.14 | 4.36 | 3.49 | 3.04 | 2.88 |
| AUUCCCCUAGGUCAUCGGGUA [Fam2.2 aminoacylation ribozyme variant] | 8.16 | 58.9 | 10.2 | 7.57 | 7.47 | 7.28 |
| AUUCCCCUAGGUCAUCUGGUG [Fam2.2 aminoacylation ribozyme variant] | 18.8 | 107 | 15.3 | 9.58 | 10.6 | 14.7 |
| AUUCCCCUGCUCAUCGAGUGA [Fam2.1 aminoacylation ribozyme variant] | 1.89 | 2.12 | 1.06 | 1.51 | 1.54 | 1.53 |
| AUUCCCCUGGUCAGCGAGUGA [Fam2.1 aminoacylation ribozyme variant] | 7.02 | 39.5 | 8.52 | 4.24 | 3.66 | 5.69 |
| AUUCCCCUGGUCAUCCAGUGA [Fam2.1 aminoacylation ribozyme variant] | 13.2 | 98.5 | 14.3 | 6.74 | 6.96 | 11.6 |
| AUUCCCCUGGUCAUCGAAUGA [Fam2.1 aminoacylation ribozyme variant] | 2.09 | 2.91 | 2.15 | 1.96 | 2.24 | 2.45 |
| AUUCCCCUGGUCAUCGACUGA [Fam2.1 aminoacylation ribozyme variant] | 1.25 | 1.59 | 1.41 | 1.64 | 1.54 | 1.23 |
| AUUCCCCUGGUCAUCGUGUGA [Fam2.1 aminoacylation ribozyme variant] | 5.32 | 37.6 | 5.65 | 3.33 | 2.66 | 5.03 |
